{
  "source": "paper PMC10540216",
  "about": "“Activity Guided Azide-methyllysine Photo-trapping for Substrate Profiling of Lysine Demethylases” (Journal of the American Chemical Society, 2023)",
  "data": [
    {"system": "KDM4A-I71AzF", "assay": "CASI: photo-crosslinking with HEK293T cell extracts, StrepTactin enrichment and LC-MS/MS proteomics;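 note: lysates from HEK293T cells pretreated with a KDM4 inhibitor to raise proteome methylation, affinity-purified after ±UV, gel-resolved, trypsin-digested, with exclusive unique peptides per protein averaged per condition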", "type": "binding, human", "conditions": "sheet \"Final results but with 0.01\"", "values": [
      {"molecule": "TIF1B_HUMAN (protein, UniProt Q13263 2-835, looked up) Transcription intermediary …: AASAAAASAAAASAASGSPGPGEGSAGGEKRSTAPSAAASASASAAASSPAGGGAEALELLEHCGVCRERLRPEREPRLLPCLHSACSACLGPAAPAAANSSGDGGAAGDGTVVDCPVCKQQCFSKDIVENYFMRDSGSKAATDAQDANQCCTSCEDNAPATSYCVECSEPLCETCVEAHQRVKYTKDHTVRSTGPAKSRDGERTVYCNVHKHEPLVLFCESCDTLTCRDCQLNAHKDHQYQFLEDAVRNQRKLLASLVKRLGDKHATLQKSTKEVRSSIRQVSDVQKRVQVDVKMAILQIMKELNKRGRVLVNDAQKVTEGQQERLERQHWTMTKIQKHQEHILRFASWALESDNNTALLLSKKLIYFQLHRALKMIVDPVEPHGEMKFQWDLNAWTKSAEAFGKIVAERPGTNSTGPAPMAPPRAPGPLSKQGSGSSQPMEVQEGYGFGSGDDPYSSAEPHVSGVKRSRSGEGEVSGLMRKVPRVSLERLDLDLTADSQPPVFKVFPGSTTEDYNLIVIERGAAAAATGQPGTAPAGTPGAPPLAGMAIVKEEETEAAIGAPPTATEGPETKPVLMALAEGPGAEGPRLASPSGSTSSGLEVVAPEGTSAPGGGPGTLDDSATICRVCQKPGDLVMCNQCEFCFHLDCHLPALQDVPGEEWSCSLCHVLPDLKEEDGSLSLDGADSTGVVAKLSPANQRKCERVLLALFCHEPCRPLHQLATDSTFSLDQPGGTLDLTLIRARLQEKLSPPYSSPQEFAQDVGRMFKQFNKLTEDKADVQSIIGLQRFFETRMNEAFGDTKFSAVLVEPPPMSLPGAGLSSQELSGGPGDGP", "Fold change (+UV/-UV)": 0.8},
      {"molecule": "ZC3HE_HUMAN (protein, UniProt Q6PJT7 1-736, looked up) Zinc finger CCCH …: MEIGTEISRKIRSAIKGKLQELGAYVDEELPDYIMVMVANKKSQDQMTEDLSLFLGNNTIRFTVWLHGVLDKLRSVTTEPSSLKSSDTNIFDSNVPSNKSNFSRGDERRHEAAVPPLAIPSARPEKRDSRVSTSSQESKTTNVRQTYDDGAATRLMSTVKPLREPAPSEDVIDIKPEPDDLIDEDLNFVQENPLSQKKPTVTLTYGSSRPSIEIYRPPASRNADSGVHLNRLQFQQQQNSIHAAKQLDMQSSWVYETGRLCEPEVLNSLEETYSPFFRNNSEKMSMEDENFRKRKLPVVSSVVKVKKFNHDGEEEEEDDDYGSRTGSISSSVSVPAKPERRPSLPPSKQANKNLILKAISEAQESVTKTTNYSTVPQKQTLPVAPRTRTSQEELLAEVVQGQSRTPRISPPIKEEETKGDSVEKNQGTQQRQLLSRLQIDPVMAETLQMSQDYYDMESMVHADTRSFILKKPKLSEEVVVAPNQESGMKTADSLRVLSGHLMQTRDLVQPDKPASPKFIVTLDGVPSPPGYMSDQEEDMCFEGMKPVNQTAASNKGLRGLLHPQQLHLLSRQLEDPNGSFSNAEMSELSVAQKPEKLLERCKYWPACKNGDECAYHHPISPCKAFPNCKFAEKCLFVHPNCKYDAKCTKPDCPFTHVSRRIPVLSPKPAVAPPAPPSSSQLCRYFPACKKMECPFYHPKHCRFNTQCTRPDCTFYHPTINVPPRHALKWIRPQTSE", "Fold change (+UV/-UV)": 4},
      {"molecule": "RNZ2_HUMAN (protein, UniProt Q9BQ52 17-826, looked up) Zinc phosphodiesterase ELAC …: SQGRTISQAPARRERPRKDPLRHLRTREKRGPSGCSGGPNTVYLQVVAAGSRDSGAALYVFSEFNRYLFNCGEGVQRLMQEHKLKVARLDNIFLTRMHWSNVGGLSGMILTLKETGLPKCVLSGPPQLEKYLEAIKIFSGPLKGIELAVRPHSAPEYEDETMTVYQIPIHSEQRRGKHQPWQSPERPLSRLSPERSSDSESNENEPHLPHGVSQRRGVRDSSLVVAFICKLHLKRGNFLVLKAKEMGLPVGTAAIAPIIAAVKDGKSITHEGREILAEELCTPPDPGAAFVVVECPDESFIQPICENATFQRYQGKADAPVALVVHMAPASVLVDSRYQQWMERFGPDTQHLVLNENCASVHNLRSHKIQTQLNLIHPDIFPLLTSFRCKKEGPTLSVPMVQGECLLKYQLRPRREWQRDAIITCNPEEFIVEALQLPNFQQSVQEYRRSAQDGPAPAEKRSQYPEIIFLGTGSAIPMKIRNVSATLVNISPDTSLLLDCGEGTFGQLCRHYGDQVDRVLGTLAAVFVSHLHADHHTGLPSILLQRERALASLGKPLHPLLVVAPNQLKAWLQQYHNQCQEVLHHISMIPAKCLQEGAEISSPAVERLISSLLRTCDLEEFQTCLVRHCKHAFGCALVHTSGWKVVYSGDTMPCEALVRMGKDATLLIHEATLEDGLEEEAVEKTHSTTSQAISVGMRMNAEFIMLNHFSQRYAKVPLFSPNFSEKVGVAFDHMKVCFGDFPTMPKLIPPLKALFAGDIEEMEERREKRELRQVRAALLSRELAGGLEDGEPQQKRAHTEEPQAKKVRAQ", "Fold change (+UV/-UV)": 0.5},
      {"molecule": "TF3C4_HUMAN (protein, UniProt Q9UKN8 1-822, looked up) General transcription factor …: MNTADQARVGPADDGPAPSGEEEGEGGGEAGGKEPAADAAPGPSAAFRLMVTRREPAVKLQYAVSGLEPLAWSEDHRVSVSTARSIAVLELICDVHNPGQDLVIHRTSVPAPLNSCLLKVGSKTEVAECKEKFAASKDPTVSQTFMLDRVFNPEGKALPPMRGFKYTSWSPMGCDANGRCLLAALTMDNRLTIQANLNRLQWVQLVDLTEIYGERLYETSYRLSKNEAPEGNLGDFAEFQRRHSMQTPVRMEWSGICTTQQVKHNNECRDVGSVLLAVLFENGNIAVWQFQLPFVGKESISSCNTIESGITSPSVLFWWEYEHNNRKMSGLIVGSAFGPIKILPVNLKAVKGYFTLRQPVILWKEMDQLPVHSIKCVPLYHPYQKCSCSLVVAARGSYVFWCLLLISKAGLNVHNSHVTGLHSLPIVSMTADKQNGTVYTCSSDGKVRQLIPIFTDVALKFEHQLIKLSDVFGSVRTHGIAVSPCGAYLAIITTEGMINGLHPVNKNYQVQFVTLKTFEEAAAQLLESSVQNLFKQVDLIDLVRWKILKDKHIPQFLQEALEKKIESSGVTYFWRFKLFLLRILYQSMQKTPSEALWKPTHEDSKILLVDSPGMGNADDEQQEEGTSSKQVVKQGLQERSKEGDVEEPTDDSLPTTGDAGGREPMEEKLLEIQGKIEAVEMHLTREHMKRVLGEVYLHTWITENTSIPTRGLCNFLMSDEEYDDRTARVLIGHISKKMNKQTFPEHCSLCKEILPFTDRKQAVCSNGHIWLRCFLTYQSCQSLIYRRCLLHDSIARHPAPEDPDWIKRLLQSPCPFCDSPVF", "Fold change (+UV/-UV)": 0.6667},
      {"molecule": "PLOD3_HUMAN (protein, UniProt O60568 25-738, looked up) Multifunctional procollagen …: SDRPRGRDPVNPEKLLVITVATAETEGYLRFLRSAEFFNYTVRTLGLGEEWRGGDVARTVGGGQKVRWLKKEMEKYADREDMIIMFVDSYDVILAGSPTELLKKFVQSGSRLLFSAESFCWPEWGLAEQYPEVGTGKRFLNSGGFIGFATTIHQIVRQWKYKDDDDDQLFYTRLYLDPGLREKLSLNLDHKSRIFQNLNGALDEVVLKFDRNRVRIRNVAYDTLPIVVHGNGPTKLQLNYLGNYVPNGWTPEGGCGFCNQDRRTLPGGQPPPRVFLAVFVEQPTPFLPRFLQRLLLLDYPPDRVTLFLHNNEVFHEPHIADSWPQLQDHFSAVKLVGPEEALSPGEARDMAMDLCRQDPECEFYFSLDADAVLTNLQTLRILIEENRKVIAPMLSRHGKLWSNFWGALSPDEYYARSEDYVELVQRKRVGVWNVPYISQAYVIRGDTLRMELPQRDVFSGSDTDPDMAFCKSFRDKGIFLHLSNQHEFGRLLATSRYDTEHLHPDLWQIFDNPVDWKEQYIHENYSRALEGEGIVEQPCPDVYWFPLLSEQMCDELVAEMEHYGQWSGGRHEDSRLAGGYENVPTVDIHMKQVGYEDQWLQLLRTYVGPMTESLFPGYHTKARAVMNFVVRYRPDEQPSLRPHHDSSTFTLNVALNHKGLDYEGGGCRFLRYDCVISSPRKGWALLHPGRLTHYHEGLPTTWGTRYIMVSFVDP", "Fold change (+UV/-UV)": 0},
      {"molecule": "CMTR1_HUMAN (protein, UniProt Q8N1G2 1-835, looked up) Cap-specific mRNA …: MKRRTDPECTAPIKKQKKRVAELALSLSSTSDDEPPSSVSHGAKASTTSLSGSDSETEGKQHSSDSFDDAFKADSLVEGTSSRYSMYNSVSQKLMAKMGFREGEGLGKYSQGRKDIVEASSQKGRRGLGLTLRGFDQELNVDWRDEPEPSACEQVSWFPECTTEIPDTQEMSDWMVVGKRKMIIEDETEFCGEELLHSVLQCKSVFDVLDGEEMRRARTRANPYEMIRGVFFLNRAAMKMANMDFVFDRMFTNPRDSYGKPLVKDREAELLYFADVCAGPGGFSEYVLWRKKWHAKGFGMTLKGPNDFKLEDFYSASSELFEPYYGEGGIDGDGDITRPENISAFRNFVLDNTDRKGVHFLMADGGFSVEGQENLQEILSKQLLLCQFLMALSIVRTGGHFICKTFDLFTPFSVGLVYLLYCCFERVCLFKPITSRPANSERYVVCKGLKVGIDDVRDYLFAVNIKLNQLRNTDSDVNLVVPLEVIKGDHEFTDYMIRSNESHCSLQIKALAKIHAFVQDTTLSEPRQAEIRKECLRLWGIPDQARVAPSSSDPKSKFFELIQGTEIDIFSYKPTLLTSKTLEKIRPVFDYRCMVSGSEQKFLIGLGKSQIYTWDGRQSDRWIKLDLKTELPRDTLLSVEIVHELKGEGKAQRKISAIHILDVLVLNGTDVREQHFNQRIQLAEKFVKAVSKPSRPDMNPIRVKEVYRLEEMEKIFVRLEMKIIKGSSGTPKLSYTGRDDRHFVPMGLYIVRTVNEPWTMGFSKSFKKKFFYNKKTKDSTFDLPADSIAPFHICYYGRLFWEWGDGIRVHDSQKPQDQDKLSKEDVLSFIQMHRA", "Fold change (+UV/-UV)": 3},
      {"molecule": "FUBP2_HUMAN (protein, UniProt Q92945 2-711, looked up) Far upstream element-binding …: SDYSTGGPPPGPPPPAGGGGGAGGAGGGPPPGPPGAGDRGGGGPGGGGPGGGSAGGPSQPPGGGGPGIRKDAFADAVQRARQIAAKIGGDAATTVNNSTPDFGFGGQKRQLEDGDQPESKKLASQGDSISSQLGPIHPPPRTSMTEEYRVPDGMVGLIIGRGGEQINKIQQDSGCKVQISPDSGGLPERSVSLTGAPESVQKAKMMLDDIVSRGRGGPPGQFHDNANGGQNGTVQEIMIPAGKAGLVIGKGGETIKQLQERAGVKMILIQDGSQNTNVDKPLRIIGDPYKVQQACEMVMDILRERDQGGFGDRNEYGSRIGGGIDVPVPRHSVGVVIGRSGEMIKKIQNDAGVRIQFKQDDGTGPEKIAHIMGPPDRCEHAARIINDLLQSLRSGPPGPPGGPGMPPGGRGRGRGQGNWGPPGGEMTFSIPTHKCGLVIGRGGENVKAINQQTGAFVEISRQLPPNGDPNFKLFIIRGSPQQIDHAKQLIEEKIEGPLCPVGPGPGGPGPAGPMGPFNPGPFNQGPPGAPPHAGGPPPHQYPPQGWGNTYPQWQPPAPHDPSKAAAAAADPNAAWAAYYSHYYQQPPGPVPGPAPAPAAPPAQGEPPQPPPTGQSDYTKAWEEYYKKIGQQPQQPGAPPQQDYTKAWEEYYKKQAQVATGGGPGAPPGSQPDYSAAWAEYYRQQAAYYGQTPGPGGPQPPPTQQGQQQAQ", "Fold change (+UV/-UV)": 1.125}
    ]}
  ]
}
